Paper PMC2094093

Biological target: Human Hsp90β (human) (UniProt P08238)
Assay: SEC

Human Hsp90β, P08238 1-724 (natural protein; other documents disagree on this pair), sequence (P08238 whole entry): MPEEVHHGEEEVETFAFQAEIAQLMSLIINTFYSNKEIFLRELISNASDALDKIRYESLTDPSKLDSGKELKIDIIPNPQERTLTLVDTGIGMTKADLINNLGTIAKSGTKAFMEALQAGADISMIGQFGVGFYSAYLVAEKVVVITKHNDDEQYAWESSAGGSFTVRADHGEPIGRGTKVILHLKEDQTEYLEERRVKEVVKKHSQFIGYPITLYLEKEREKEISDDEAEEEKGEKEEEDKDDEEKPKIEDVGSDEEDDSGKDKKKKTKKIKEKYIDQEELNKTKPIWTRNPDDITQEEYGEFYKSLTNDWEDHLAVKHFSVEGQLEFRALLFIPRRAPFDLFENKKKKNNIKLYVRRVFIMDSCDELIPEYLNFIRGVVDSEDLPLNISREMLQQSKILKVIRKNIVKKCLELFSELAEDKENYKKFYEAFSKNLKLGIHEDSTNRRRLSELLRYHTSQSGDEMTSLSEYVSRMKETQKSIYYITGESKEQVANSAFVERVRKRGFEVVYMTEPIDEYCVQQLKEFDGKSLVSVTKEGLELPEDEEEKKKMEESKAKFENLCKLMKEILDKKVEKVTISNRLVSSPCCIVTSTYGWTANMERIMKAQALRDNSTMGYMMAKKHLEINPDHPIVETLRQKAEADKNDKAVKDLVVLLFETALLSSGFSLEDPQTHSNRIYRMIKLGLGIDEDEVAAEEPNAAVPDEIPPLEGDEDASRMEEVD

stoichiometry N: 2
Substance: Human Hsp90β, P08238 1-724 (natural protein; other documents disagree on this pair)
